From paper PMC9004346 (2022)
Bridges are numbered along the chain shown (N, C = ends). Where no end group is shown, it is not given here. C4 = constraint linking the two cyclising residues; C5 = constraint linking the two cyclising residues; C7 = constraint linking the two cyclising residues

Experiments:
Test in all cases: fluorescence polarisation competition
[1] = target: T1, P7C8 (bridge 1-8; not fully specified (N-terminus, C-terminus, bridges); printed as C_C8_RLYGFKW_C8_; also: structure of constraint C8 not given here in text)
T1 chain: CRLYGFKW

[2] = target: T2, P2
T2 chain: Ac-LYGFKW-NH2

[3] = target: T3, P5C5 (linker 1-8 via C5; not fully specified (N-terminus, C-terminus); also: structure of constraint C5 not given here in text)
T3 chain: CRLYGFKC

[4] = target: T4, P1
T4 chain: Ac-RLYGFK-NH2

[5] = target: T5, P5C7 (linker 1-8 via C7; not fully specified (N-terminus, C-terminus); also: structure of constraint C7 not given here in text)
T5 chain: CRLYGFKC

[6] = target: T6, P4
T6 chain: Ac-RLYGFKWH-NH2

[7] = target: T7, P3
T7 chain: Ac-RLYGFKW-NH2

[8] = target: T8, P5C4 (linker 1-8 via C4; not fully specified (N-terminus, C-terminus); also: structure of constraint C4 not given here in text)
T8 chain: CRLYGFKC

B1: CK2α (protein)
chain: MSGPVPSRARVYTDVNTHRPREYWDYESHVVEWGNQDDYQLVRKLGRGKYSEVFEAINITNNEKVVVKILKPVKKKKIKREIKILENLRGGPNIITLADIVKDPVSRTPALVFEHVNNTDFKQLYQTLTDYDIRFYMYEILKALDYCHSMGIMHRDVKPHNVMIDHEHRKLRLIDWGLAEFYHPGQEYNVRVASRYFKGPELLVDYQMYDYSLDMWSLGCMLASMIFRKEPFFHGHDNYDQLVRIAKVLGTEDLYDYIDKYNIELDPRFNDILGRHSRKRWERFVHSENQHLVSPEALDFLDKLLRYDHQSRLTAREAMEHPYFYTVVKDQARMGSSSMPGGSTPVSSANMMSGISSVPTPSPLGPLAGSPVIAAANPLGMPVPAAAGAQQ
IC50 [1]: 15.6 µM | IC50 [2]: 137 µM | IC50 [3]: 28.9 µM | IC50 [4]: > 500 µM | IC50 [5]: 40 µM | IC50 [6]: 16.7 µM | IC50 [7]: 22.5 µM | IC50 [8]: 54.6 µM
